Measurements: patent US6322962A, “Sterol-regulated Site-1 protease and assays of modulators thereof” (Board of Regents, The University of Texas System, priority 1999, dated 2001)

Biological target: HSV-tagged human SREBP-2, wild-type (human) (UniProt Q12772)

cleaved nuclear form of HSV-tagged SREBP-2 on immunoblot (SRD-12B cells) (fold higher levels of expression): 10
B1: Myc-S1P(Site-B mutant) (enzyme)
chain: DGGRSEQKLISEEDLNGEQKLISEEDLNGEQKLISEEDLNSSGRLGKKAFEKASCPSCSHLTLKVEFSSTVVEYEYIVAFNGYFTAKARNSFISSALKSSEVDNWRIIPRNNPSSDYPSDFEVIQIKEKQKAGLLTLEDHPNIKRVTPQRKVFAAAAFAESDPIVPCNETRWSQKWQSSRPLRRASLSLGSGFWHATGRHSSRRLLRAIPRQVAQTLQADVLWQMGYTGANVRVAVFDTGLSEKHPHFKNVKERTNWTNERTLDDGLGHGTFVAGVIASMRECQGFAPDAELHIFRVFTNNQVSYTSWFLDAFNYAILKKIDVLNLSIGGPDFMDHPFVDKVWELTANNVIMVSAIGNDGPLYGTLNNPADQMDVIGVGGIDFEDNIARFSSRGMTTWELPGGYGRVKPDIVTYGAGVRGSGVKGGCRALSGTSVASPVVAGAVTLLVSTVQKRELVNPASVKQALIASARRLPGVNMFEQGHGKLDLLRAYQILSSYKPQASLSPSYIDLTECPYMWPYCSQPIYYGGMPTIVNVTILNGMGVTGRIVDKPEWRPYLPQNGDNIEVAFSYSSVLWPWSGYLAISISVTKKAASWEGIAQGHIMITVASPAETEAKNGAEHTSTVKLPIKVKIIPTPPRSKRVLWDQYHNLRYPPGYFPRDNLRMKNDPLDWNGDHVHTNFRDMYQHLRSMGYFVEVLGAPFTCFDATQYGTLLMVDSEEEYFPEEIAKLRRDVDNGLSLVIFSDWYNTSVMRKVKFYDENTRQWWMPDTGGANIPALNELLSVWNMGFSDGLYEGEFALANHDMYYASGCSIAKFPEDGVVITQTFKDQGLEVLKQETAVVENVPILGLYQIPAEGGGRIVLYGDSNCLDDSHRQKDCFWLLDALLQYTSYGVNPPSLSHSGNRQRPPSGAGLAPPERMEGNHLHRYSKVLEAHLGDPKPRPLPACPHLSWAKPQPLNETAPSNLWKHQKLLSIDLDKVVLPNFRSNRPQVRPLSPGESGAWDIPGGIMPGRYNQEVGQTIPVFAFLGAMVALAFFVVQISKAKSRPKRRRPRAKRPQLTQQTHPPRTPSV
